Literature values as cited in article PMC3440555 (Bioconjugate chemistry, 2012).

What was measured:
[1] = target: melanocortin-1 (MC1) receptor (Mus musculus, UniProt Q01727); conditions: read-out: MC1 receptor binding affinity (IC50 value); B16/F1 melanoma cells
[2] = tested on: B16/F1 melanoma-bearing mouse; conditions: flank primary B16/F1 melanoma and B16/F10 pulmonary melanoma metastases; 2 h post-injection
[3] = tested on: B16/F1 melanoma-bearing C57 mice

Chain of melanocortin-1 (MC1) receptor (Q01727 whole entry): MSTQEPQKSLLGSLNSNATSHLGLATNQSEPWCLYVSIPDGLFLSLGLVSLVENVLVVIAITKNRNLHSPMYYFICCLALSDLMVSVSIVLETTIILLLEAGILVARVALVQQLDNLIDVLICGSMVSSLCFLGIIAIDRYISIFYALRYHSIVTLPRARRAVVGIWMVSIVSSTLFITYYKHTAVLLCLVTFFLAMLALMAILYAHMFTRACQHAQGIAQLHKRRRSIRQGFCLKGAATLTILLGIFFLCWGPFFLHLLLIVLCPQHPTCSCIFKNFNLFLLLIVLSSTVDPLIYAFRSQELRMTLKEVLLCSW

DOTA-GGNle-CycMSHhex: non-radiolabeled DOTA-conjugated lactam bridge-cyclized alpha-MSH peptide, DOTA-Gly-Gly-Nle-c[Asp-His-DPhe-Arg-Trp-Lys]-CONH2
IC50 [1]: 2.1 nM

^67Ga-DOTA-Gly-Glu-c[Lys-Nle-Glu-His-DPhe-Arg-Trp-Gly-Arg-Pro-Val-Asp] [^67Ga-DOTA-GlyGlu-CycMSH]
Visualization of melanoma by SPECT/CT [2]: clearly visualized
Decrease of renal uptake by L-lysine co-injection ([3]; 2 h post-injection, melanoma uptake not affected): 69.8%
Renal uptake ([3]; mouse, in vivo, 2 h): 27.55 ± 7.87 %ID/g
Tumor uptake ([3]; mouse, in vivo, 2 h): 12.93 ± 1.63 %ID/g
